Data: paper PMC11139879

How the values were obtained:
[1] = biological target: T1, pP1192R DNA topoisomerase II, full-length (African swine fever virus, UniProt A0A2X0THW2 1-1192); assay: EMSA; details: protein: recombinant; tags: C-terminal 8xHis; chain copies: 2; label: 5'-Cy5 on O1; four-way junction of O1-O4
[2] = biological target: T1, pP1192R DNA topoisomerase II, …; assay: size exclusion chromatography; details: protein: recombinant; tags: C-terminal 8xHis; chain copies: 2; four-way junction of O1-O4
[3] = biological target: T1, pP1192R DNA topoisomerase II, …; assay: cryo-EM; details: protein: recombinant; tags: C-terminal 8xHis; chain copies: 2; blunt

B1: four-way junction DNA, Cy5 (structured_DNA)
DNA 1: CTGGACGCAATCTGACAATGCGCTCATCGTCATCCTCGGCACGCGCCG
DNA 2: CGGCGCGTGCCGAGGATGACGATGAGATAGGCGTTAACGCGGCCTA
DNA 3: TAGGCCGCGTTAACGCCTATTTGCCCGGGAGTACCGGCATTCCT
DNA 4: AGGAATGCCGGTACTCCCGGGCAACGCATTGTCAGATTGCGTCCAG
binding result [1]: binds

B2: four-way junction DNA (structured_DNA)
DNA 1: CTGGACGCAATCTGACAATGCGCTCATCGTCATCCTCGGCACGCGCCG
DNA 2: CGGCGCGTGCCGAGGATGACGATGAGATAGGCGTTAACGCGGCCTA
DNA 3: TAGGCCGCGTTAACGCCTATTTGCCCGGGAGTACCGGCATTCCT
DNA 4: AGGAATGCCGGTACTCCCGGGCAACGCATTGTCAGATTGCGTCCAG
binding result [2]: binds

B3: 52 bp dsDNA (G-segment) (dsDNA)
DNA 1: ATGCATATATATGTATATGTATGTGTGTATATATACACATATATATATATAT
DNA 2: ATATATATATATATGTGTATATATACACACATACATATACATATATATGCAT
binding result [3]: binds
